B1: GFPnanobody-SpyCatcher (VHH)
VHH: QLVESGGALVQPGGSLRLSCAASGFPVNRYSMRWYRQAPGKEREWVAGMSSAGDRSSYEDSVKGRFTISRDDARNTVYLQMNSLKPEDTAVYYCNVNVGFEYWGQGTQVTVSS
notes: also called GFPnb-SpC; GFPnanobody-SpC
B2: GFPnanobody-SpC_EQ (VHH)
VHH: B1 VHH
notes: also called GFPnb-SpC EQ; GFPnb fused to SpyCatcher E77Q mutant

Assays:
HbpD(Δd1)-SpT [1] = target: T1, HbpD(Δd1)-SpT (Escherichia coli, UniProt O88093 53-1377); assay: covalent Spy-ligation to S. Typhimurium cells, SDS-PAGE/Coomassie
T1 construct: also called HbpD(Δd1)-SpyTag; Hbp(Δd1)-SpT

HbpD(Δd1)-SpT [2] = target: T1, HbpD(Δd1)-SpT; assay: SDS-PAGE/Coomassie of S. Typhimurium cells displaying HbpD(Δd1)-SpT incubated with GFPnb-SpC EQ

Binder	binding result (HbpD(Δd1)-SpT [1])	binding result (HbpD(Δd1)-SpT [2])
B1	binds	–
B2	–	no binding (tested: 3 µM)
